From US7902348B2, “Janus family kinases and identification of immune modulators” (The United States of America as represented by the …, priority 1995, dated 2011)

T1: γc-JAK-3 interaction (Homo sapiens, UniProt P52333)
T1 construct: endogenous in cells; host or cells: YT cells (alternatively COS-7 cells expressing γc and JAK-3)
T1 sequence (P52333 1-1124): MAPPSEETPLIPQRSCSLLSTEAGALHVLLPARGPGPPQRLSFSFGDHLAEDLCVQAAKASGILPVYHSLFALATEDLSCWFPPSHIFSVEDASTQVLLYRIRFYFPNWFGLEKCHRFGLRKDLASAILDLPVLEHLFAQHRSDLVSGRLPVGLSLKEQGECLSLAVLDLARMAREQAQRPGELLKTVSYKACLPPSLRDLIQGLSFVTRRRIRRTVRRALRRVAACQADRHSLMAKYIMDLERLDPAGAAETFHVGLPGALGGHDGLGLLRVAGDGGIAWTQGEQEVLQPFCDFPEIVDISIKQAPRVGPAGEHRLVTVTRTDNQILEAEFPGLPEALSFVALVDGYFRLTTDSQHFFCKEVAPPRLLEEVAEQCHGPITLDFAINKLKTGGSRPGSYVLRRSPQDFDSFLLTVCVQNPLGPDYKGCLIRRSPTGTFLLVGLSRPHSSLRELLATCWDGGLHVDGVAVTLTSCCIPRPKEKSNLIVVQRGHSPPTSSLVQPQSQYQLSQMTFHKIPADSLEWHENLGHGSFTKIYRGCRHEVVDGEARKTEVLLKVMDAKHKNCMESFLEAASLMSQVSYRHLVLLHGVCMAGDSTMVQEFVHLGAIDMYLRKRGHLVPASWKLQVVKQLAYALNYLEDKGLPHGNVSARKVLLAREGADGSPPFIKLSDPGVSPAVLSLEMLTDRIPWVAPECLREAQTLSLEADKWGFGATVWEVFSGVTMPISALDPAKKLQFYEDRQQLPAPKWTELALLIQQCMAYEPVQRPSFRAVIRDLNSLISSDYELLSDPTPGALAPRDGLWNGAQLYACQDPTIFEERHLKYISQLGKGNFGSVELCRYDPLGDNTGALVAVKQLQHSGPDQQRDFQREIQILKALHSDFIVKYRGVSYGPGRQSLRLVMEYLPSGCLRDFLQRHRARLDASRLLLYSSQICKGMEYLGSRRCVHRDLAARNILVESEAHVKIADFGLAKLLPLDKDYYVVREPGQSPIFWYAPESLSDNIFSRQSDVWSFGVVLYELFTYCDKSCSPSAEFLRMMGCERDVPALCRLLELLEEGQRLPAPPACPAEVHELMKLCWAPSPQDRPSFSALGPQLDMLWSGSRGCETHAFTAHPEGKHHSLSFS

B1: IL-7: cytokine, known γc user (protein, UniProt P13232 26-177, looked up)
Interleukin-7: DCDIEGKDGKQYESVLMVSIDQLLDSMKEIGSNCLNNEFNFFKRHICDANKEGMFLFRAARKLRQFLKMNSTGDFDLHLLKVSEGTTILLNCTGQVKGRKPAALGEAQPTKSLEENKSLKEQKKLNDLCFLKRLLQEIKTCWNKILMGTKEH
B2: IL-4: cytokine that utilizes the common γ chain of the IL-2 receptor (protein, UniProt P05112 25-153, looked up)
Interleukin-4: HKCDITLQEIIKTLNSLTEQKTLCTELTVTDIFAASKNTTEKETFCRAATVLRQFYSHHEKDTRCLGATAQQFHRHKQLIRFLKRLDRNLWGLAGLNSCPVKEANQSTLENFLERLKTIMREKYSKCSS

Columns and labels:
γc-JAK-3 interaction = target: T1, γc-JAK-3 interaction; test: Assay for compounds that inhibit IL-2 receptor complex formation: γc-JAK-3 coprecipitation (Example 15); type: binding; details: peptide 140 μM added to cell lysates, anti-γc immunoprecipitation, JAK-3 immunoblot
Protocol: The peptide to be tested as an inhibitor corresponded to the first 19 amino acids of the γc cytoplasmic tail (sequence […]) (SEQ ID NO:7). […] The negative control peptide had the sequence […] (SEQ ID NO:10), and was synthesized so that the Tyr residue at position 5 of the peptide was phosphotyrosine. The test peptide or the negative control peptide were separately added to the cell lysates to final concentrations of 140 μM. The positive control immunoprecipitation was carried out in the absence of added peptide. Lysates were immunoprecipitated for 16 hours at 4° C. using antibodies to γc and protein A sepharose and washed six times before electrophoresis on SDS gels. The gels were immunoblotted with antisera to JAK-3 using ECL as described previously.

JAK-3 [1] = test: Cytokine-induced tyrosine phosphorylation of JAK-3 in YT cells (Example 10); type: cell-based, human; details: 15 minutes stimulation, anti-JAK-3 IP, antiphosphotyrosine blot
Protocol: (§1) YT cells were serum-starved for 3 hours and acid washed twice before stimulation and immunoprecipitation. NK 3.3 cells were grown for 2 days in 10% lymphocult (Biotest) and 15% fetal bovine serum before being washed and incubated in 2% serum. Commercial polyclonal anti-JAK-1 and JAK-2 antisera were obtained from UBI and Tyk2 polyclonal antiserum from Santa Cruz Biotechnology.

JAK-1 = test: Cytokine-induced phosphorylation and activation of JAK-1 in PHA-activated peripheral blood lymphocytes (Example 11); type: cell-based, human; details: for tyrosine phosphorylation of JAK-1: PBL, 15 minutes, Western blotting; for activation of JAK-1: in vitro kinase assays
Protocol: (§2) The PBL were activated for 72 hours with PHA, then washed twice at pH 6.5, incubated for 3 hours in medium containing 0.5% human serum and resuspended in medium containing 10% fetal calf serum for one hour. Cells were then lysed and immunoprecipitated with polyclonal antibodies to JAK-1 (UBI) or JAK-3. The anti-JAK-3 antibody used in these procedures has been described by Johnston et al., in Nature 370:151 (1994). Phosphotyrosine-containing proteins were detected by immunoblotting with 4G10 (UBI). […] In one procedure, the lysate was precleared with polyclonal antibody to JAK-3.

JAK-3 [2] = test: Cytokine-induced phosphorylation and activation of JAK-3 in PHA-activated peripheral blood lymphocytes (Example 11); type: cell-based, human; details: for tyrosine phosphorylation of JAK-3: PBL, 15 minutes, Western blotting; for activation of JAK-3: in vitro kinase assays
Protocol: as §2

JAK-3 [3] = test: Cytokine-induced tyrosine phosphorylation of JAK-3 in NK 3.3 cells (Example 10); type: cell-based, human; details: 5 or 15 minutes stimulation
Protocol: as §1
Cellular lysates were immunoprecipitated with anti-JAK-3 and blotted with antiphosphotyrosine.

Molecule	inhibition of γc-JAK-3 coprecipitation (γc-JAK-3 interaction)	tyrosine phosphorylation of JAK-1 (JAK-1)	activation of JAK-1 (JAK-1)	tyrosine phosphorylation of JAK-3 (JAK-3 [2])	activation of JAK-3 (JAK-3 [2])	also measured
ERTMPRIPTLKNLEDLVTE (n-terminal fragment) [competitor peptide]	partially inhibited	–	–	–	–	inhibition of γc-JAK-3 coprecipitation (γc-JAK-3 interaction; listed as 19 amino acid long peptide spanning Leu 271): only partially inhibited; inhibition of γc-JAK-3 coprecipitation (γc-JAK-3 interaction; listed as 19 amino acid polypeptide having the sequence of SEQ ID NO:6): inhibited
APPCYTLKPET (n-terminal fragment) [negative control peptide, reference compound]	failed to inhibit	–	–	–	–	–
GM-CSF: granulocyte macrophage colony stimulating factor	–	–	–	–	–	JAK-3 tyrosine phosphorylation (JAK-3 [1]): not phosphorylated
IL-9: cytokine, known γc user	–	induced tyrosine phosphorylation	activated	induced tyrosine phosphorylation	activated	–
B1	–	induced tyrosine phosphorylation	activated	induced tyrosine phosphorylation	activated	–
B2	–	induced tyrosine phosphorylation	activated	induced tyrosine phosphorylation	activated	JAK-3 tyrosine phosphorylation (JAK-3 [3]): tyrosine phosphorylated
